Assay results as given in article PMC6484134 (2019).

Columns and labels:
[1] = molecular target: Cul3NΔ22 (human Cul3 N-terminal domain, residues 23–388, I342R L346D) (human, UniProt Q13618 23-388, I342R | L346D); assay: ITC
[2] = molecular target: Cul3N (human Cul3 N-terminal domain, residues 1–388, I342R L346D) (human, UniProt Q13618 1-388, I342R | L346D); assay: ITC
Sequence of Cul3N (human Cul3 N-terminal domain, residues 1–388, I342R L346D) (Q13618 1-388 I342R/L346D): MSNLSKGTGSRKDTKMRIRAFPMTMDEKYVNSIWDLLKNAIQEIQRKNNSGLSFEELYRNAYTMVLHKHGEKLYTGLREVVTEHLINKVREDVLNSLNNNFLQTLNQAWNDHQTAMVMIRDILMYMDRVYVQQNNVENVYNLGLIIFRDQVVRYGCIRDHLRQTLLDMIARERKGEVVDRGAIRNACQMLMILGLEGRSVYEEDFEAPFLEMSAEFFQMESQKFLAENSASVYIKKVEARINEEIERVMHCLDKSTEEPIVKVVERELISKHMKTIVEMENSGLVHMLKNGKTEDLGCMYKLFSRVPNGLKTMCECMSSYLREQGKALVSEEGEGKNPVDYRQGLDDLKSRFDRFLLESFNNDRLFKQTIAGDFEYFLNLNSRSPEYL

Sequence of Cul3NΔ22 (human Cul3 N-terminal domain, residues 23–388, I342R L346D) (Q13618 23-388 I342R/L346D): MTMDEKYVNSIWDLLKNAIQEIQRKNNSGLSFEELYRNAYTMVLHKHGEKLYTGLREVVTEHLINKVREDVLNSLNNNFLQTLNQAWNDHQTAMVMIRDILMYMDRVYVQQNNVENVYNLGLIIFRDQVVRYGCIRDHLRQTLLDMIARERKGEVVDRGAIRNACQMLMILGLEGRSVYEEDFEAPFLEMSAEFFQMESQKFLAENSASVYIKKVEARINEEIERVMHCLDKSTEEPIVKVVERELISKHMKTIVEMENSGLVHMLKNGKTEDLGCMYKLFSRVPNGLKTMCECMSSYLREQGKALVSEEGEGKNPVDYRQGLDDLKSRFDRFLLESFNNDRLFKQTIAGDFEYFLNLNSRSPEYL

B1: KLHL3-BB (human KLHL3 BTB-BACK domain, residues 24–276) (domain or fragment)
chain: RTITVNPAHMGKAFKVMNELRSKQLLCDVMIVAEDVEIEAHRVVLAACSPYFCAMFTGDMSESKAKKIEIKDVDGQTLSKLIDYIYTAEIEVTEENVQVLLPAASLLQLMDVRQNCCDFLQSQLHPTNCLGIRAFADVHTCTDLLQQANAYAEQHFPEVMLGEEFLSLSLDQVCSLISSDKLTVSSEEKVFEAVISWINYEKETRLEHMAKLMEHVRLPLLPRDYLVQTVEEEALIKNNNTCKDFLIEAMKYH
A Kd [1] of 36.2 nM and a Kd [2] of 22.9 nM were found for B1 in this work.
